Reference: publication doi:10.1101/2022.06.15.495552, “A network of DZF proteins controls alternative splicing regulation and fidelity”

B1: C-rich (GC-rich) 24-mer dsRNA, Zfr-RBNS1 (dsRNA)
RNA 1: AAUGACACCCAAAAUGACACCCAA
RNA 2: UUGGGUGUCAUUUUGGGUGUCAUU
B2: C-rich (GC-rich) 12-mer dsRNA, Zfr-RBNS1 (dsRNA)
RNA 1: AAUGACACCCAA
RNA 2: UUGGGUGUCAUU
B3: C-rich 24-mer RNA : G-rich DNA hybrid, Zfr-RBNS1 (DNA:RNA)
RNA: AAUGACACCCAAAAUGACACCCAA
DNA: TTGGGTGTCATGGGTGTCAT
B4: U-rich (AU-rich) 24-mer dsRNA, Zfr-RBNS3 (dsRNA)
RNA 1: AAUGUUGUAAAAAAUGUUGUAAAA
RNA 2: UUUUACAACAUUUUUUACAACAUU
B5: U-rich 24-mer RNA : A-rich DNA hybrid, Zfr-RBNS3 (DNA:RNA)
RNA: AAUGUUGUAAAAAAUGUUGUAAAA
DNA: TTTTACAACATTTTTACAACATT
B6: U-rich (AU-rich) 12-mer dsRNA, Zfr-RBNS3 (dsRNA)
RNA 1: AAUGUUGUAAAA
RNA 2: UUUUACAACAUU

Key:
[1] = target: T1, ZFRlong;ILF2 (29-390) (human;human?, UniProt Q96KR1;Q12905 317-1074;29-390, |); assay: EMSA; 4 mM Mg2+; EMSA: 20 mM HEPES pH 7.5, 150 mM K acetate, 4 mM Mg acetate, 1 mM DTT, 0.5 uM nucleic acid, 1 h on ice; 8% native PAGE in 0.5x TBE at 4 C; conditions: protein: recombinant;recombinant, tags: N-terminal His6;N-terminal His6, copies: 1;1, blunt
[2] = target: T1, ZFRlong;ILF2 (29-390); assay: EMSA; 4 mM Mg2+; affinity similar to 24-mer dsRNA; EMSA: 20 mM HEPES pH 7.5, 150 mM K acetate, 4 mM Mg acetate, 1 mM DTT, 0.5 uM nucleic acid, 1 h on ice; 8% native PAGE in 0.5x TBE at 4 C; conditions: protein: recombinant;recombinant, tags: N-terminal His6;N-terminal His6, copies: 1;1, label: Cy5 on RNA strand (5' per Methods), RNA:DNA duplex
[3] = label: Cy5 on strand 1 (5' per Methods)
[4] = label: DY681 on strand 1 (5' per Methods)

T1 sequence (Q96KR1 317-1074, chain 1 of 2): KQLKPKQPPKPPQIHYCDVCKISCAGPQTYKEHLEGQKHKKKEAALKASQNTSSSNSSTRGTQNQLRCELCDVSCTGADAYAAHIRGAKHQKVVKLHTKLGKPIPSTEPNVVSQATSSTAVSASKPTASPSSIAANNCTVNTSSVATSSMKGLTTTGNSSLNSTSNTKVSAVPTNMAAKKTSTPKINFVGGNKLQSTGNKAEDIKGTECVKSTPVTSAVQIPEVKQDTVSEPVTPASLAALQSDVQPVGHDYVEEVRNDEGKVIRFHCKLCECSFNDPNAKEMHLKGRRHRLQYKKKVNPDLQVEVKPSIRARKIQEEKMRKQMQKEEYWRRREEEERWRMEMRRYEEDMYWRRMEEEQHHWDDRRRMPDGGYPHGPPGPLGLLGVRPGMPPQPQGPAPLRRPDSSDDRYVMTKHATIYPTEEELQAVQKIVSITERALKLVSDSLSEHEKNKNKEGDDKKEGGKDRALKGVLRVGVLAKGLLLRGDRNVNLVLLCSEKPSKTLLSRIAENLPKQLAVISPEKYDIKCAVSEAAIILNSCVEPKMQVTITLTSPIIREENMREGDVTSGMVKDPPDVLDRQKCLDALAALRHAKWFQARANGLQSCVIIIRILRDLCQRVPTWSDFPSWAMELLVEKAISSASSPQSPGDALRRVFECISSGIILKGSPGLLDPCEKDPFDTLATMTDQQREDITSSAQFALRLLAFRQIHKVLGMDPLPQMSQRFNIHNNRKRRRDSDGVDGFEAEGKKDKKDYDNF
T1 sequence (Q12905 29-390, chain 2 of 2): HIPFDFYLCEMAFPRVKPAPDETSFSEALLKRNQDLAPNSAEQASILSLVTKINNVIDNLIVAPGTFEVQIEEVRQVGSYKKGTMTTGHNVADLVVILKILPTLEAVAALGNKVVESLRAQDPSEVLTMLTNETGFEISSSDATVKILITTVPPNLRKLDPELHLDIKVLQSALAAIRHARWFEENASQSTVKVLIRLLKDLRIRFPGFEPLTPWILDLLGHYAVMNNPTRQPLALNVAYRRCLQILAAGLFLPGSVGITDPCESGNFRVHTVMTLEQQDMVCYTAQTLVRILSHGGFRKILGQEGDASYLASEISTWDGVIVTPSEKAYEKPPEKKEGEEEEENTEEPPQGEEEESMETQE

Binder | Kd [1, 3] [nM] | Kd [1, 4] [nM] | other results
B1 | ~300 |  | 
B2 |  | ~800 | 
B3 |  |  | binding result ([2]; printed DNA 4 nt short): binds
B4 | ~300 |  | 
B5 |  |  | binding result ([2]; printed DNA 1 nt short): binds
B6 |  | ~800 | 
